Assay in all cases: AVEXIS screen signal:noise (double-corrected)
Assay [1] has as its target T1, ADP377.
T1 chain: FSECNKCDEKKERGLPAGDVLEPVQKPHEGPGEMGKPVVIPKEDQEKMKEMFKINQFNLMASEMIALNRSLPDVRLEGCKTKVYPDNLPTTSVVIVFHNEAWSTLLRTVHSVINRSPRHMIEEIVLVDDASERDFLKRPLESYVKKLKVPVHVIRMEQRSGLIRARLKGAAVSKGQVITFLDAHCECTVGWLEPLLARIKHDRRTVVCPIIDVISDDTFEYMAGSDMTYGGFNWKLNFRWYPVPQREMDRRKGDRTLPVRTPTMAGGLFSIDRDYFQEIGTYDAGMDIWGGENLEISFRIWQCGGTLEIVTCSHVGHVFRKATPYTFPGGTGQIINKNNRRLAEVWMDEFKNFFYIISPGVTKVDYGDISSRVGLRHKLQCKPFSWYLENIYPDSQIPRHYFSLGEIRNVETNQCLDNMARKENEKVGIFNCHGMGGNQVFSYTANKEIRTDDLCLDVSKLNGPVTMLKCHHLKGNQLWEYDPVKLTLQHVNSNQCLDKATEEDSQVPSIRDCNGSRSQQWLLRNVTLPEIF

For assay [2], the target named is T2, ADP379.
T2 chain: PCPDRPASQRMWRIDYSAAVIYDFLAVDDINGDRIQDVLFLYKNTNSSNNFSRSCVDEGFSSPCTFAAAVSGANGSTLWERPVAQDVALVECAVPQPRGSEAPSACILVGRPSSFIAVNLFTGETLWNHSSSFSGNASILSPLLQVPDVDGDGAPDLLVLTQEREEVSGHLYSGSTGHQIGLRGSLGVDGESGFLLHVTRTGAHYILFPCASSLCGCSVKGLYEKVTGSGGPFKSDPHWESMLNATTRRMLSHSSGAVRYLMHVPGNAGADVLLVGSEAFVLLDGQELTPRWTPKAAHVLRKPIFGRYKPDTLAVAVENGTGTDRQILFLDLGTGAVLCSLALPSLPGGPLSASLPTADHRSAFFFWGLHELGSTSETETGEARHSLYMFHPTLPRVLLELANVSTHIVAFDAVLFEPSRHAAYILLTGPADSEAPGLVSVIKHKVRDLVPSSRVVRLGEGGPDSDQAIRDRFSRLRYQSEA

In assay [3] the target is T3, ADP261.
T3 chain: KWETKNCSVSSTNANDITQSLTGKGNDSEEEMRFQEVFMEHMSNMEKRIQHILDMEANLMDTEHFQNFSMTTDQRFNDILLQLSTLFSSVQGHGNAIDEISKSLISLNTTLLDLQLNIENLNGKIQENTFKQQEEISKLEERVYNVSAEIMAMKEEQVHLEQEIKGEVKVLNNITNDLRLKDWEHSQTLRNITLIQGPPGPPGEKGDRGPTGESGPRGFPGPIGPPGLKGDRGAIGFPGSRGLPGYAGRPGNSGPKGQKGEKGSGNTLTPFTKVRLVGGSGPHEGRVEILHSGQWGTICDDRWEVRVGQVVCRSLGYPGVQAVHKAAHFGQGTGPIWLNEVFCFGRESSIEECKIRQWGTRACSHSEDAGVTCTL

In assay [4] the target is ADP386.
Assay [5] has as its target T4, ADP381.
T4 chain: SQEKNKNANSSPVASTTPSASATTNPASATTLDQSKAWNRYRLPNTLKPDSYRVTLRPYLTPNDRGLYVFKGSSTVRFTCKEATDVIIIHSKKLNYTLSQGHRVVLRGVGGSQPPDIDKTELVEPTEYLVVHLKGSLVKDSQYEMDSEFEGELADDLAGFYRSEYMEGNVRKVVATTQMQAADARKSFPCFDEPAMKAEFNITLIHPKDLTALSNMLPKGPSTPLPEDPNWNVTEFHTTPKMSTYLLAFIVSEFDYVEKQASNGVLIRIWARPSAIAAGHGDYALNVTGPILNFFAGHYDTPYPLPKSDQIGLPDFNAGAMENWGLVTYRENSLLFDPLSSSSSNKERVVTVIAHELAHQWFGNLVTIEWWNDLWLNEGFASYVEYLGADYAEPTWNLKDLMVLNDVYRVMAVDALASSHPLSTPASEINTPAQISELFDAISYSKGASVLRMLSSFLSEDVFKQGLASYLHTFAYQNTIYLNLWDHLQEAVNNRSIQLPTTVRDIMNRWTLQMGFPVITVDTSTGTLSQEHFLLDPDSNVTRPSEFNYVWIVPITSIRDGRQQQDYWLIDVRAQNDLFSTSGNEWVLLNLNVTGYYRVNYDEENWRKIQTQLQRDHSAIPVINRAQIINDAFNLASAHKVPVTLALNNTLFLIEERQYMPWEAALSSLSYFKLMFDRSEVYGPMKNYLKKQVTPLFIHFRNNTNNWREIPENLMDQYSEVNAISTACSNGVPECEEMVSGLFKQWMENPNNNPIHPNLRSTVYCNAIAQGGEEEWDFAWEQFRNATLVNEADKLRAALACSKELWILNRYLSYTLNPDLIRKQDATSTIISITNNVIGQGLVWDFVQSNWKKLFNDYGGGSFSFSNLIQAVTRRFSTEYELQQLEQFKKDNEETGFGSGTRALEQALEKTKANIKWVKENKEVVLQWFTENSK

The target of assay [6] is T5, ADP264.
T5 chain: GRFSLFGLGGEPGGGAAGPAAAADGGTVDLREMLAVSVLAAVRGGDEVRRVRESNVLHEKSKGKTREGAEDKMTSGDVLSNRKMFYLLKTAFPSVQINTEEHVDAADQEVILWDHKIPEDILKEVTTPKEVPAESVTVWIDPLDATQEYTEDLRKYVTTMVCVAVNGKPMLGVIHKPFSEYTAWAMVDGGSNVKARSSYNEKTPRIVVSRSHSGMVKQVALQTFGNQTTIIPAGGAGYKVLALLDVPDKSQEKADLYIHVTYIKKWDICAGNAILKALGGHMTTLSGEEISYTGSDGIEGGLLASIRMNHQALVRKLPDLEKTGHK

B1: ADP237 (protein)
chain: TKKKVSVSEINFDSAVDDVQWCGNNHMTVLVKTVKGRLYRSSDGGKIWTNIAGNLADKENNKADPSSNHMNEMTTVDLIMVNSVNKNIVLIIGNQKNHYISEDSGETFRLLNYQNKINFWQFHSTKTHWALVSSWTEACYSNDDNSGECMQTLSLTKDLGRTFQLIDIYVVQFNWGDKESHLEDTIYYTRHKNRNGHQQRFSGWSKDVDFVATHNFGKSVDVLVKQGNKFLISNGYIFVAKLNDVIKQTVNMMVSTDGGKTFNKANLPENIHEKSYTVLDTSEGSIMLHVNHGTSSEKINTGNVYISDASGLNYALSLPNNIRTSSGECEFDRVLSLDGVYIANFLDVNNEIKDEDLRFQNFKSAIEEDIAPFETNTEKRKKQYNKGKNEDAVRTVISFNKGGEWSYLKAPKVDSRGNKYECGDNCYLHLHGITNYHQYAPFYSIENAVGIIMGTGNVGSHLRYESDEVNTFLSRDGGVTWIEAHKGPYIYEYGDYGGLIVMADDLRKTNQIVFSWNEGQSWFDFELGQFSIDVDNIVAEPNSASVEFLVYGTRNDVGVLYHLDFNALGQPLCKGLWAADSVSSDYETWSPTSGNFNDKCILGRKITYTRRKQTSECFNGKDLKRTVDKKPCECTPEDYECETGFTRKIGSYECKPNDPTLTIEGCTSSSYFYANAYRKVPGDICVNGWVPEKVPVPCPSYAPFNKAAK
modifications: bait human Fc-tagged dimer; N-glycosylation sequons mutated in Plasmodium baits
In the case of B1, the binding score in assay [1] is 11.5; in assay [2] it was 16.2; in assay [3], 19.5; in assay [4], 19.2; in assay [5] it was 8.67; in assay [6], 9.43.

These data come from article PMC11098746 (2024).
